Test results: patent US20020077295A1 (YALE UNIVERSITY, published 2002)
Where no end group is shown, it is not given here.

B1: AP-Nogo (His-AP-Nogo, 66 amino acid) (ligand)
chain: HHHHHHIIPVEEENPDFWNREAAEALGAAKKLQPAQTAAKNLIIFLGDGMGVSTVTAARILKGQKKDKLGPEIPLAMDRFPYVALSKTYNVDKHVPDSGATATAYLCGVKGNFQTIGLSAAARFNQCNTTRGNEVISVMNRAKKAGKSVGVVTTTRVQHASPAGTYAHTVNRNWYSDADVPASARQEGCQDIATQLISNMDIDVILGGGRKYMFRMGTPDPEYPDDYSQGGTRLDGKNLVQEWLAKRQGARYVWNRTELMQASLDPSVTHLMGLFEPGDMKYEIHRDSTLDPSLMEMTEAALRLLSRNPRGFFLFVEGGRIDHGHHESRAYRALTETIMFDDAIERAGQLTSEEDTLSLVTADHSHVFSFGGYPLRGSSIFGLAPGKARDRKAYTVLLYGNGPGYVLKDGARPDVTESESGSPEYRQQSAVPLDEETHAGEDVAVFARGPQAHLVHGVQEQTFIAHVMAFAACLEPYTACDLAPPAGTTDAAHPGRIYKGVIQAIQKSDEGHPFRAYLESEVAISEELVQKYSNSALGHVNCTIKELRRLFLVDDLVDSLK
notes: also called AP fused Nogo-66
B2: murine NgR (Nogo-66 receptor) expressed on COS-7 cells (receptor)
chain: CPGACVCYNEPKVTTSCPQQGLQAVPTGIPASSQRIFLHGNRISHVPAASFQSCRNLTILWLHSNALARIDAAAFTGLTLLEQLDLSDNAQLHVVDPTTFHGLGHLHTLHLDRCGLRELGPGLFRGLAALQYLYLQDNNLQALPDNTFRDLGNLTHLFLHGNRIPSVPEHAFRGLHSLDRLLLHQNHVARVHPHAFRDLGRLMTLYLFANNLSMLPAEVLMPLRSLQYLRLNDNPWVCDCRARPLWAWLQKFRGSSSEVPCNLPQRLADRDLKRLAASDLEGCAVASGPFRPIQTSQLTDEELLSLPKCCQPDAADKASVLEPGRPASAGNALKGRVPPGDTPPGNGSGPRHINDSPFGTLPSSAEPPLTALRPGGSEPPGLPTTGPRRRPGCSRKNRTRSHCRLGQAGSGASGTGDAEGS
notes: Library clone or pcDNA3.1 construct transfected into COS-7 cells; GPI-linked protein, cleavage site of the GPI signal not applied here; also called mouse NgR; mNgR
B3: 140-AP (fusion protein containing AP and the 1-40 peptide, residues #1055-1094 of hNogoA) (ligand)
chain: RIYKGVIQAIQKSDEGHPFRAYLESEVAISEELVQKYSNS
modifications: also: fused to alkaline phosphatase (AP), order not given here
notes: not shown: alkaline phosphatase of vector pcAP-6
B4: NgLRR- (residues 306 to 473 of mNgR) (receptor, not shown: small tags and cut ends)
chain: LEGCAVASGPFRPIQTSQLTDEELLSLPKCCQPDAADKASVLEPGRPASAGNALKGRVPPGDTPPGNGSGPRHINDSPFGTLPSSAEPPLTALRPGGSEPPGLPTTGPRRRPGCSRKNRTRSHCRLGQAGSGASGTGDAEGS
notes: In pSecTag2, on COS-7 cells; also called complete LRR domain deleted
B5: NgRΔNT (residues 58 to 473 of mNgR) (receptor, not shown: small tags and cut ends)
chain: SSQRIFLHGNRISHVPAASFQSCRNLTILWLHSNALARIDAAAFTGLTLLEQLDLSDNAQLHVVDPTTFHGLGHLHTLHLDRCGLRELGPGLFRGLAALQYLYLQDNNLQALPDNTFRDLGNLTHLFLHGNRIPSVPEHAFRGLHSLDRLLLHQNHVARVHPHAFRDLGRLMTLYLFANNLSMLPAEVLMPLRSLQYLRLNDNPWVCDCRARPLWAWLQKFRGSSSEVPCNLPQRLADRDLKRLAASDLEGCAVASGPFRPIQTSQLTDEELLSLPKCCQPDAADKASVLEPGRPASAGNALKGRVPPGDTPPGNGSGPRHINDSPFGTLPSSAEPPLTALRPGGSEPPGLPTTGPRRRPGCSRKNRTRSHCRLGQAGSGASGTGDAEGS
notes: In pSecTag2, on COS-7 cells; vector tags as for wtNgR; also called amino terminus deletion

What was measured:
[1] = biological target: T1, Nogo binding sites (axonal Nogo receptors) on chick dorsal root ganglion neurons (chick); experiment: cell-based or functional assay
[2] = biological target: T1, Nogo binding sites (axonal Nogo …); experiment: AP-fusion ligand binding to dissociated neurons, Scatchard analysis
Procedure: Purified protein was subjected to SDS-PAGE and stained for total protein with CBB or immunoblotted with anti-Nogo antibodies (anti-Nogo). Molecular weight markers of 200, 116, 97, 65 and 45 kDa are shown at left, and the migration of AP-Nogo at right. (b) is a photograph of dissociated chick E12 dorsal root ganglion neurons that were incubated with 10 nM AP-Nogo or 10 nM AP-Nogo+160 nM GST-Nogo for sixty minutes at 23° C. The cells were washed, fixed and incubated at 60° C. in order to inactivate endogenous AP. Bound AP-Nogo was detected by incubation with nitro blue tetrazolium. Note the intense neuronal staining by AP-Nogo that is displaced by unlabeled ligand. (c) is a graph displaying experimental data where the potency of AP-Nogo and GST-Nogo in E12 chick dorsal root ganglion growth cone collapse assays was assessed as described in the Example section. […] The means±s.e.m. calculated from five to eight determinations are illustrated. (d) is a graph displaying experimental data where the binding of 10 nM AP-Nogo to chick E12 dorsal root ganglion neurons was assessed alone, or in the presence of 100 nM GST-Nogo or in the presence of 4 μM Pep2, which was quantified from experiments as in (b) by the method described in the Example section. The means±s.e.m. calculated from eight determinations are shown. […]

[3] = biological target: B1; experiment: AP-fusion binding to COS-7 cells expressing mouse NgR
[4] = biological target: B1; experiment: AP-Nogo binding to COS-7 cells transfected with the mouse NgR clone
From the text: A Nogo binding assay was developed which utilizes a method widely used in examining semaphorin and ephrin axonal guidance function (Flanagan & Vanderhaeghen, (1998) Annu. Rev. Neurosci. 21, 309-345; Takahashi et al., (1999) Cell 99, 59-69). It involves fusing a secreted placental alkaline phosphatase (AP) moiety to the ligand in question to provide a biologically active receptor binding agent which can be detected with an extremely sensitive colorimetric assay. For Nogo, an expression vector was created encoding a signal peptide, a His6 tag for purification, AP and the 66 amino acid active domain of Nogo. The fusion protein can be purified from the conditioned medium of transfected cells in milligram amounts (FIG. 5). This protein is biologically active as a growth cone collapsing agent, with an EC₅₀ of 1 nM. […] Binding is blocked by GST-Nogo and by the antagonistic 25 amino acid peptides, consistent with competitive binding to a neuronal receptor site.
This assay was utilized for expression cloning of a NgR. Pools of a mouse adult brain cDNA expression library representing 250,000 independent clones were transfected into non-neuronal COS-7 cells. […] Single cDNA clones encoding a Nogo biding site were isolated by sib-selection from each of the two positive pools. […]

[5] = biological target: T2, AP (alkaline phosphatase alone) (UniProt P05187 23-511); experiment: AP binding to COS-7 cells transfected with the mouse NgR clone
T2 construct: Control without Nogo residues; also called AP alone
From the text: This assay was utilized for expression cloning of a NgR. Pools of a mouse adult brain cDNA expression library representing 250,000 independent clones were transfected into non-neuronal COS-7 cells. […] Single cDNA clones encoding a Nogo biding site were isolated by sib-selection from each of the two positive pools. The two independently isolated clones are identical to one another except for a 100 bp extension of the 5′ untranslated region in one clone. […] Furthermore, GST-Nogo displaces AP-Nogo from these sites.

[6] = biological target: B2; experiment: 140-AP binding to COS-7 cells expressing mNgR, bound/free plot
Procedure: To determine if AP-fused deletion mutants of Nogo-66 bind mouse NgR (“mNgR”), COS-7 cells were transfected with a plasmid encoding the mouse NgR sequence ligated into pcDNA3.1. 48 hours after transfection, cells were washed with HBH (Hanks balanced salt solution containing 20 mM sodium Hepes, pH 7.05, and 1 mg ml⁻¹ bovine serum albumin) and then incubated with condition medium containing one of the AP-fusion proteins described above for 2 hours at 37° C. Cells were then washed, fixed, and left in HBH at 67° C. for 14-16 h to inactivate endogenous AP. AP-fusion protein binding to NgR expressing COS-7 cells was detected with the substrates NBT and BCIP (FIG. 13b).
FIG. 14b graphically depicts the binding of 140-AP to COS-7 cells expressing mNgR as measured as a function of 140-AP concentration.

[7] = biological target: B1; experiment: AP-hNogo-A(1055-1120) binding to transfected COS-7 cells
Procedure: Forty-eight hours after the transfection, the transfected COS-7 cells were washed with hanks balanced salt solution containing 20 mM sodium HEPES, pH 7.05, and 1 mg/ml bovine serum albumin (BSA) [hereinafter “HBH”]. […] AP-fusion protein was detected as previously described for AP-Sema3A (Takahashi et al., Nature Neurosci. 1:487-493, 1998).
Because the NgRΔ1-2, NgRΔ3-4, NgRΔ5-6, and NgRΔ7-8 deletions remove entire LRR domains it is unlikely that the entire tertiary structure of mNgR is disrupted.

[8] = biological target: T3, AP-NgR (mNgR residues 27-451 fused to 6xHis-placental alkaline phosphatase) (mouse, UniProt P05187 23-511 (human entry)); experiment: AP-NgR binding to transfected COS-7 cells
T3 construct: Soluble probe in the self-association test

[9] = biological target: B2; experiment: binding to mNgR, data not shown

Question: How did the “growth cone collapse, chick E12 dorsal root ganglion (EC50)” value [1] turn out when B1 was run?
Answer: Its value is 1 nM.

Question: What about the Kd [2] of the same binder?
Answer: Its Kd is 3 nM.

Question: Which Kd [3] does the source give for B2 here?
Answer: The Kd was ~7 nM.

Question: What about the Kd [4] of the same binder?
Answer: The Kd was ~3 nM.

Question: Does B2 bind [5]?
Answer: Result: no binding

Question: How did the Kd [6] turn out when B3 was run?
Answer: Its Kd is 8 nM.

Question: Does B4 bind [7]?
Answer: Result: no binding

Question: Does B4 bind [8]?
Answer: Result: no binding

Question: Does B5 bind [7]?
Answer: Result: no binding

Question: Does B5 bind [8]?
Answer: Result: no binding

Question: Does IQKSDEGHPFRAYLESEVAISEELVQKYSNS [peptide having residues 10-40 of hNogoA(#1055-1120)] bind [9]?
Answer: Result: no binding
